# Reference: IntAct's records for PubMed 21135237
# B1: Glutamate receptor 1 (Rattus norvegicus (Rat)), P19490 (parent)
# chain: MPYIFAFFCTGFLGAVVGANFPNNIQIGGLFPNQQSQEHAAFRFALSQLTEPPKLLPQIDIVNISDSFEMTYRFCSQFSKGVYAIFGFYERRTVNMLTSFCGALHVCFITPSFPVDTSNQFVLQLRPELQEALISIIDHYKWQTFVYIYDADRGLSVLQRVLDTAAEKNWQVTAVNILTTTEEGYRMLFQDLEKKKERLVVVDCESERLNAILGQIVKLEKNGIGYHYILANLGFMDIDLNKFKESGANVTGFQLVNYTDTIPARIMQQWRTSDSRDHTRVDWKRPKYTSALTYDGVKVMAEAFQSLRRQRIDISRRGNAGDCLANPAVPWGQGIDIQRALQQVRFEGLTGNVQFNEKGRRTNYTLHVIEMKHDGIRKIGYWNEDDKFVPAATDAQAGGDNSSVQNRTYIVTTILEDPYVMLKKNANQFEGNDRYEGYCVELAAEIAKHVGYSYRLEIVSDGKYGARDPDTKAWNGMVGELVYGRADVAVAPLTITLVREEVIDFSKPFMSLGISIMIKKPQKSKPGVFSFLDPLAYEIWMCIVFAYIGVSVVLFLVSRFSPYEWHSEEFEEGRDQTTSDQSNEFGIFNSLWFSLGAFMQQGCDISPRSLSGRIVGGVWWFFTLIIISSYTANLAAFLTVERMVSPIESAEDLAKQTEIAYGTLEAGSTKEFFRRSKIAVFEKMWTYMKSAEPSVFVRTTEEGMIRVRKSKGKYAYLLESTMNEYIEQRKPCDTMKVGGNLDSKGYGIATPKGSALRNPVNLAVLKLNEQGLLDKLKNKWWYDKGECGSGGGDSKDKTSALSLSNVAGVFYILIGGLGLAMLVALIEFCYKSRSESKRMKGFCLIPQQSINEAIRTSTLPRNSGAGASGGGGSGENGRVVSQDFPKSMQSIPCMSHSSGMPLGATGL
# Variants of: B1
# Conditions: with kcc2a_rat Camk2a
row,Variant,effect of a mutation on the interaction
1,S567A,disrupting interaction
